Data from patent US20240058465A1 (SUTRO BIOPHARMA, published 2024).
Residue numbers refer to the chain shown, from its start. Where two headings read alike, the source gives them in different places.

Key:
[1] = molecular target: T1, human ROR1 (hROR1) (human, UniProt Q01973 30-937); assay: flow cytometry, HCT116-hROR1 cells; NSB = non-saturating binding
T1 construct: On HCT116-hROR1 transfectants, Mino cells or Ntera-2 cells, as the assay of each row says; also called receptor tyrosine kinase like orphan receptor 1

[2] = molecular target: T1, human ROR1 (hROR1); assay: flow cytometry, HCT116-hROR1 cells
[3] = molecular target: T1, human ROR1 (hROR1); assay: cell-based or functional assay
[4] = molecular target: T2, human ROR1 Frizzled domain (hROR1-Fz) (human, UniProt Q01973 165-305); assay: SPR Biacore, IgG on anti-Fc, ROR1-Fz analyte
T2 construct: Acro Biosystems, made in HEK293
In short: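 Test antibodies captured on an anti-Fc surface (CM5 chip), then analyte bound for 180 s with 600 s dissociation at 25° C in HBS-EP+ buffer at 50 μL/min. Human ROR1 ECD, Frizzled or Kringle domain used as analyte; regeneration with 10 mM glycine pH 2.0.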

[5] = molecular target: T1, human ROR1 (hROR1); assay: cell-based or functional assay; remark: listed apart in the source
[6] = molecular target: T3, receptor tyrosine kinase orphan receptor 1 (ROR1) on Ntera-2 cells (human, UniProt Q01973 30-937); assay: cell-based or functional assay
[7] = molecular target: T3, receptor tyrosine kinase orphan …; assay: cell-based or functional assay; remark: listed apart in the source

B1: SRP2193-A01 (antibody, IgG1, V domains shown)
VH: EVQLVESGGGLVQPGGSLRLSCAASGFNINDHYIHWVRQAPGKGLEWVGAIDPTSGSTVFADSVKGRFTISADTSKNTAYLQMNSLRAEDTAVYYCARSRWFRVLWSYVFDYWGQGTLVTVSS
VL: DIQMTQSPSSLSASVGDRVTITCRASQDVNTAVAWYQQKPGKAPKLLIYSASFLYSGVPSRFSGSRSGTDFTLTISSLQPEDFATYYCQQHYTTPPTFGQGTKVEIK
notes: His/FLAG-tagged IgG1, cell-free
binding result [1]: binds

B2: SRP2193-A03 (antibody, IgG1, V domains shown)
VH: B1 VH with N30A, D31N, H32Y, Y33H, T54K, F60H, F102S, S107T
VL: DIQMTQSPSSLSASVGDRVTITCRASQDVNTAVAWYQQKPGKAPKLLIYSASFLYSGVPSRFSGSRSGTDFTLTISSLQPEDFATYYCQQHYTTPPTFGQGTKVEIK
notes: as for B1
binding result [1]: binds

B3: SRP2193-A05 (antibody, IgG1, V domains shown)
VH: B1 VH with N30K, D31G, H32Y, G49S, A50V, T54N, V59I, F110L
VL: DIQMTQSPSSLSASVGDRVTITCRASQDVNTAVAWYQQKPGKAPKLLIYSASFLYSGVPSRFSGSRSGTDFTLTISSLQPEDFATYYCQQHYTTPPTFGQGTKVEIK
notes: His/FLAG-tagged IgG1, cell-free; also called Antibody 116
binding result [1]: binds

B4: SRP2193-A07 (antibody, IgG1, V domains shown)
VH: B1 VH with D31A, H32S, Y33D, E46G, T54N, S55T, S57T, V59N, F60Y
VL: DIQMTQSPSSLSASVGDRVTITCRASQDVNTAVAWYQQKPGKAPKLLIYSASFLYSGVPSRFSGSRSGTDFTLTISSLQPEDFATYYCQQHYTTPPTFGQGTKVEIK
notes: His/FLAG-tagged IgG1, cell-free; also called Antibody 97
binding result [1]: binds

B5: SRP2193-E06 (antibody, IgG1, V domains shown)
VH: B1 VH with Q13R, N30D, H32Y, A50V, T54K, S55N, F60Y, F68S, S75P, N77S
VL: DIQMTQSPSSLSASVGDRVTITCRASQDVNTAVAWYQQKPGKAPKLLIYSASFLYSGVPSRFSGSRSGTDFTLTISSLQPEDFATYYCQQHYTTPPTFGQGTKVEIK
notes: His/FLAG-tagged IgG1, cell-free; also called Antibody 73
Bmax (MFI) [2]: 14700 MFI | Kd [2]: 5.82 nM | Mino Nb-PBD, drug-conjugated 2° antibody Cell Killing EC50 [3]: 0.0025 nM | Mino Nb-PBD, drug-conjugated 2° antibody Cell Killing Span [3]: 63% | Kd [4]: 2.23 nM | koff [4]: 0.000246 s⁻¹ | kon [4]: 111000 M⁻¹ s⁻¹

B6: SRP2193-A02 (antibody, IgG1, V domains shown)
VH: B1 VH with N30H, D31A, H32S, T54K, V59Y, F60Y, F102L, V109I
VL: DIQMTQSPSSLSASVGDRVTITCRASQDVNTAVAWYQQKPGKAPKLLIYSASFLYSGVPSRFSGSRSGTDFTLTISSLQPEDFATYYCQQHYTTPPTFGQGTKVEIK
notes: His/FLAG-tagged IgG1, cell-free; also called Antibody 83
binding result [1]: binds

B7: SRP2193-A06 (antibody, IgG1, V domains shown)
VH: B1 VH with D31A, H32Y, G49D, T54D, V59H, F60N, V109I
VL: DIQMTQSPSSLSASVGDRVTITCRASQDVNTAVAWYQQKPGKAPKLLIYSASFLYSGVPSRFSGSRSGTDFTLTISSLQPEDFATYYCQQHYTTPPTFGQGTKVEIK
notes: His/FLAG-tagged IgG1, cell-free; also called Antibody 85
binding result [1]: binds

B8: SRP2193-E05 (antibody, IgG1, V domains shown)
VH: EVQLVESGGGLVQPGGSLRLSCAASGFNIKRSYIHWVRQAPGKGLEWVVSIDPNGSSTHYADSVKGRFTISADTSKNTAYLQMNSLRAEDTAVYYCARSRWFRVLWSYVLDYWGQGTLVTVSS
VL: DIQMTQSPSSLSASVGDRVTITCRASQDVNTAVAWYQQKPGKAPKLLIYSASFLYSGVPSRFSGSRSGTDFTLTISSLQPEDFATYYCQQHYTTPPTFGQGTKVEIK
notes: His/FLAG-tagged IgG1, cell-free; also called Antibody 84
Bmax (MFI) [2]: 18300 MFI | Kd [2]: 0.1 nM | Mino Nb-PBD, drug-conjugated 2° antibody Cell Killing EC50 [3]: 0.00034 nM | Mino Nb-PBD, drug-conjugated 2° antibody Cell Killing Span [3]: 70% | Kd [4]: 0.674 nM | koff [4]: 0.000199 s⁻¹ | kon [4]: 295000 M⁻¹ s⁻¹

B9: SRP2193-A04 (antibody, IgG1, V domains shown)
VH: B1 VH with N30I, D31S, H32Y, T54N, V59L, F60L, F110Y
VL: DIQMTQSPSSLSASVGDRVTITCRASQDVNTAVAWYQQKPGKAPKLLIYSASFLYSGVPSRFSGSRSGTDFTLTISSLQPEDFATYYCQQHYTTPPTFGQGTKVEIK
notes: as for B1
binding result [1]: binds

B10: Conjugate 1 (2188-D04-Y180/F404-LP1) (antibody, human IgG1, kappa)
heavy: MEVQLVESGGGLVQPGGSLRLSCAASGFNISDYDIHWVRQAPGKGLEWVGGIDPADGSTDYADSVKGRFTISADTSKNTAYLQMNSLRAEDTAVYYCARDYGVYDYWGQGTLVTVSSASTKGPSVFPLAPSSKSTSGGTAALGCLVKDYFPEPVTVSWNSGALTSGVHTFPAVLQSSGLSLSSVVTVPSSSLGTQTYICNVNHKPSNTKVDKKVEPKSCDKTHTCPPCPAPELLGGPSVFLFPPKPKDTLMISRTPEVTCVVVDVSHEDPEVKFNWYVDGVEVHNAKTKPREEQYNSTYRVVSVLTVLHQDWLNGKEYKCKVSNKALPAPIEKTISKAKGQPREPQVYTLPPSREEMTKNQVSLTCLVKGFYPSDIAVEWESNGQPENNYKTTPPVLDSDGSFLYSKLTVDKSRWQQGNVFSCSVMHEALHNHYTQKSLSLSPGK
light: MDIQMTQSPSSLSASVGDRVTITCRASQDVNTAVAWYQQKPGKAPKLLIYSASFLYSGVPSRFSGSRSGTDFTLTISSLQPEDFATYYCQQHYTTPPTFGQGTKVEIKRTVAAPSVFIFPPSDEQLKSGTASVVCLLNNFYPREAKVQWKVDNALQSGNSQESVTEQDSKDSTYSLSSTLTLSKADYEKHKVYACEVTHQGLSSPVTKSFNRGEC
modifications: pAMF at HC-Y180 and HC-F404 (the * of the entry), conjugated to LP1 (DBCO-Valcit-pAB-hemiasterlin)
cell killing on ROR1 positive NTERA-2 cells, EC50 [5]: > 10 nM | cell killing on ROR1 positive NTERA-2 cells, Span [5]: < 20%

B11: Conjugate 6 (2188-D04-Y180/F404-LP10) (antibody, human IgG1, kappa)
heavy: B10 heavy
light: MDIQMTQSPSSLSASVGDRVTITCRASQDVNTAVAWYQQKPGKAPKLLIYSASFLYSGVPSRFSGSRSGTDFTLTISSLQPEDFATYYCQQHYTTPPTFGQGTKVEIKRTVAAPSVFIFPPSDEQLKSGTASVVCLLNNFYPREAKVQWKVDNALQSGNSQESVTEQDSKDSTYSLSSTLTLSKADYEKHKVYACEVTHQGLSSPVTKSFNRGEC
modifications: pAMF at HC-Y180 and HC-F404 (the * of the entry), conjugated to LP10 (DBCO-PEG4-GGFG-aminol-Dxd)
cell killing on ROR1 positive NTERA-2 cells, EC50 [5]: 0.08 nM | cell killing on ROR1 positive NTERA-2 cells, Span [5]: 53%

B12: Conjugate 4 (2188-D04-Y180/F404/K42/E161-LP1) (antibody, human IgG1, kappa)
heavy: B10 heavy
light: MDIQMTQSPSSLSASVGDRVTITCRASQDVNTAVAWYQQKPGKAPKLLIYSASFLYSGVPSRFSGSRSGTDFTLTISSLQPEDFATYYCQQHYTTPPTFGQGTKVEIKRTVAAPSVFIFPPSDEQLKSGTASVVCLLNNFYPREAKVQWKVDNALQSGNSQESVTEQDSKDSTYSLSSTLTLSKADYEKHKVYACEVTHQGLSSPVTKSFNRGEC
modifications: pAMF in place of LC-K42 and LC-E161 (Kabat numbering), conjugated to LP1; pAMF at HC-Y180 and HC-F404 (the * of the entry), conjugated to LP1
cell killing on ROR1 positive NTERA-2 cells, EC50 [5]: 0.022 nM | cell killing on ROR1 positive NTERA-2 cells, Span [5]: 63%

B13: Conjugate 2 (2188-D04-Y180/F404/K42-LP1) (antibody, human IgG1, kappa)
heavy: B10 heavy
light: MDIQMTQSPSSLSASVGDRVTITCRASQDVNTAVAWYQQKPGAPKLLIYSASFLYSGVPSRFSGSRSGTDFTLTISSLQPEDFATYYCQQHYTTPPTFGQGTKVEIKRTVAAPSVFIFPPSDEQLKSGTASVVCLLNNFYPREAKVQWKVDNALQSGNSQESVTEQDSKDSTYSLSSTLTLSKADYEKHKVYACEVTHQGLSSPVTKSFNRGEC
modifications: pAMF at LC-K42 (the * of the entry), conjugated to LP1; pAMF at HC-Y180 and HC-F404 (the * of the entry), conjugated to LP1
cell killing on ROR1 positive NTERA-2 cells, EC50 [5]: 0.082 nM | cell killing on ROR1 positive NTERA-2 cells, Span [5]: 49%

B14: Conjugate 7 (2188-D04-Y180/F404/K42/E161-LP10) (antibody, human IgG1, kappa)
heavy: B10 heavy
light: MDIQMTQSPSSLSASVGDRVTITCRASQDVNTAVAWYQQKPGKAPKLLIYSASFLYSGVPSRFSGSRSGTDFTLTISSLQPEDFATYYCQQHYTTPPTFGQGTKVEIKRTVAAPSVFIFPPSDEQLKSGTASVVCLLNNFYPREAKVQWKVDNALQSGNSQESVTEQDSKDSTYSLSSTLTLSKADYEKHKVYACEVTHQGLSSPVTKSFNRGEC
modifications: pAMF in place of LC-K42 and LC-E161 (Kabat numbering), conjugated to LP10; pAMF at HC-Y180 and HC-F404 (the * of the entry), conjugated to LP10
cell killing on ROR1 positive NTERA-2 cells, EC50 [5]: 0.048 nM | cell killing on ROR1 positive NTERA-2 cells, Span [5]: 94%

B15: Conjugate 5 (2188-D04-F404-LP8) (antibody, human IgG1, kappa)
heavy: MEVQLVESGGGLVQPGGSLRLSCAASGFNISDYDIHWVRQAPGKGLEWVGGIDPADGSTDYADSVKGRFTISADTSKNTAYLQMNSLRAEDTAVYYCARDYGVYDYWGQGTLVTVSSASTKGPSVFPLAPSSKSTSGGTAALGCLVKDYFPEPVTVSWNSGALTSGVHTFPAVLQSSGLYSLSSVVTVPSSSLGTQTYICNVNHKPSNTKVDKKVEPKSCDKTHTCPPCPAPELLGGPSVFLFPPKPKDTLMISRTPEVTCVVVDVSHEDPEVKFNWYVDGVEVHNAKTKPREEQYNSTYRVVSVLTVLHQDWLNGKEYKCKVSNKALPAPIEKTISKAKGQPREPQVYTLPPSREEMTKNQVSLTCLVKGFYPSDIAVEWESNGQPENNYKTTPPVLDSDGSFLYSKLTVDKSRWQQGNVFSCSVMHEALHNHYTQKSLSLSPGK
light: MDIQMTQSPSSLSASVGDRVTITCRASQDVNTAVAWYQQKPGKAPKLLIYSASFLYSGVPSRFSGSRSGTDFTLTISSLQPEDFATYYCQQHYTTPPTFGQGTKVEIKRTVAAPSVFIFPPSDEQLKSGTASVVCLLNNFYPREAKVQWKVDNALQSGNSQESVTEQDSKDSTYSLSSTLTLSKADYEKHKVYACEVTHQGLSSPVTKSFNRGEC
modifications: pAMF at HC-F404 (the * of the entry), conjugated to LP8 (DBCO-GGG-EDA PNU)
cell killing on ROR1 positive NTERA-2 cells, EC50 [5]: 0.0101 nM | cell killing on ROR1 positive NTERA-2 cells, Span [5]: 83%

B16: Conjugate 41 (D04-F404-LP24) (antibody, human IgG1, kappa)
heavy: B15 heavy
light: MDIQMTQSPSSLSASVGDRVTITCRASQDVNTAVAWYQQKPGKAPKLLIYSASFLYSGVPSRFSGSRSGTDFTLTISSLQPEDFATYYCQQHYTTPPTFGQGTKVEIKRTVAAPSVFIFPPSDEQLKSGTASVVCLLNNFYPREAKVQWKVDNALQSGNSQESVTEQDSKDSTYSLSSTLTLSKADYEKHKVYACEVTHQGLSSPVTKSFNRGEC
modifications: pAMF at F404 (EU), linked to LP24
cell killing EC50, NTERA-2 cells [6]: > 10 nM | cell killing Span, NTERA-2 cells [6]: < 10%

B17: Conjugate 42 (D04-F404-LP25) (antibody, human IgG1, kappa)
heavy: B15 heavy
light: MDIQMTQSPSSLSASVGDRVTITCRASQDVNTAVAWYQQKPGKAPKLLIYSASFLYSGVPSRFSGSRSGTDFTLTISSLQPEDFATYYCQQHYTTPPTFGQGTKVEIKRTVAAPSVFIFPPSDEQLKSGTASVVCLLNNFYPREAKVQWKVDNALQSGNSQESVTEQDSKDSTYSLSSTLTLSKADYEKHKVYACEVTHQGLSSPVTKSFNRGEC
modifications: pAMF at F404 (EU), linked to LP25
cell killing EC50, NTERA-2 cells [6]: 0.075 nM | cell killing Span, NTERA-2 cells [6]: 58%

B18: Conjugate 37 (D04-F404-LP33) (antibody, human IgG1, kappa)
heavy: B15 heavy
light: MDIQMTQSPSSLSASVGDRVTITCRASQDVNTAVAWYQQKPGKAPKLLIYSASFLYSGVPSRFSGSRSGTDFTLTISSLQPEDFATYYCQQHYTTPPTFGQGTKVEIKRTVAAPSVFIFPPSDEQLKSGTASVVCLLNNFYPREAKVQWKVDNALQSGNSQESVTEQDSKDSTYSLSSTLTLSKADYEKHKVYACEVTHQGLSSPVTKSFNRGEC
modifications: pAMF at F404 (EU), linked to LP33
cell killing EC50, NTERA-2 cells [6]: 0.01 nM | cell killing Span, NTERA-2 cells [6]: 89%

B19: Conjugate 45 (D04-F404-LP28) (antibody, human IgG1, kappa)
heavy: B15 heavy
light: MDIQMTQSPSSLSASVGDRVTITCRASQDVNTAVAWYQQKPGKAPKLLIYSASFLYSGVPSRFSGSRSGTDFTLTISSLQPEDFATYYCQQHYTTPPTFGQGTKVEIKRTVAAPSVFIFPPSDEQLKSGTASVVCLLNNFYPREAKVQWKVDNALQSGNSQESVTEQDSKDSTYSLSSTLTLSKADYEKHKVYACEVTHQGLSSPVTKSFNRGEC
modifications: pAMF at F404 (EU), linked to LP28
cell killing EC50, NTERA-2 cells [6]: > 10 nM | cell killing Span, NTERA-2 cells [6]: < 10%

B20: Conjugate 5 (D04-F404-LP8) (antibody, human IgG1, kappa)
heavy: B15 heavy
light: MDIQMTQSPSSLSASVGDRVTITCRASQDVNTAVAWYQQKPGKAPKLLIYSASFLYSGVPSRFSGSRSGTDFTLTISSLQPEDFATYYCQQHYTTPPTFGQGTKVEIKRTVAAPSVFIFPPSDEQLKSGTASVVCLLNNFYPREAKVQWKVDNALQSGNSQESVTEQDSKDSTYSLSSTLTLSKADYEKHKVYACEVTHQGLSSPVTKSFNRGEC
modifications: pAMF at F404 (EU), linked to LP8
cell killing EC50, NTERA-2 cells [6]: 0.013 nM | cell killing Span, NTERA-2 cells [6]: 83% | cell killing EC50, NTERA-2 cells [7]: 0.021 nM | cell killing Span, NTERA-2 cells [7]: 85%

B21: Conjugate 44 (D04-F404-LP27) (antibody, human IgG1, kappa)
heavy: B15 heavy
light: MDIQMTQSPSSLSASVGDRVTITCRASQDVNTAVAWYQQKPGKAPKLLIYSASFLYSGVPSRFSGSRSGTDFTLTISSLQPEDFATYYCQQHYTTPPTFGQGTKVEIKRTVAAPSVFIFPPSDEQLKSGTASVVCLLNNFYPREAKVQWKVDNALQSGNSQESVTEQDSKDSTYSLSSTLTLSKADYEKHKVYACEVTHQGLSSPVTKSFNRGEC
modifications: pAMF at F404 (EU), linked to LP27
cell killing EC50, NTERA-2 cells [6]: 0.017 nM | cell killing Span, NTERA-2 cells [6]: 80%

B22: Conjugate 43 (D04-F404-LP26) (antibody, human IgG1, kappa)
heavy: B15 heavy
light: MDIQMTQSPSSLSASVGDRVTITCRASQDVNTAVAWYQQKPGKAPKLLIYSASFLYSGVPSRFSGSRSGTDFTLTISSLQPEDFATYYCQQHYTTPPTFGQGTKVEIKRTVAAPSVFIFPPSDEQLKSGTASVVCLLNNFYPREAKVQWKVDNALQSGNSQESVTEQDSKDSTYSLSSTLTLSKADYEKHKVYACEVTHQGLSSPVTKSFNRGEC
modifications: pAMF at F404 (EU), linked to LP26
cell killing EC50, NTERA-2 cells [6]: > 10 nM | cell killing Span, NTERA-2 cells [6]: < 10%
